Reference: patent US20140044738A1 (AstraZeneca / MedImmune, published 2014)

Assays:
[1] = target: human PD-1, full length, expressed on the cell surface (human) (UniProt Q15116); assay: flow cytometry: human primary CD4 T cells, CD45RA high; PD-1 as the cells express it
[2] = target: human PD-1, full length, expressed on the cell surface (human) (UniProt Q15116); assay: flow cytometry: human primary CD8 T cells, CD45RA high; PD-1 as the cells express it
[3] = target: human PD-1, full length, expressed on the cell surface (human) (UniProt Q15116); assay: flow cytometry: human primary CD4 T cells, CD45RA low; PD-1 as the cells express it
[4] = target: human PD-1, full length, expressed on the cell surface (human) (UniProt Q15116); assay: flow cytometry: human primary CD8 T cells, CD45RA med; PD-1 as the cells express it
[5] = target: human PD-1, full length, expressed on the cell surface (human) (UniProt Q15116); assay: flow cytometry: human primary CD8 T cells, CD45RA low; PD-1 as the cells express it
[6] = target: human PD-1, full length, expressed on the cell surface (human) (UniProt Q15116); assay: flow cytometry: human primary CD4 T cells, CD45RA med; PD-1 as the cells express it
[7] = target: human PD-1, full length, expressed on the cell surface (human) (UniProt Q15116); assay: flow cytometry: CHO cells with full-length human PD-1 pre-incubated with Ctl Ig, then hB7-DC mIg + a-mIg-APC; a-mIg-APC alone MFI=10
[8] = target: T1, human PD-1, full length, expressed on the cell surface (human, UniProt Q15116 25-288); assay: cell-based or functional assay
human PD-1-Fc [9] = target: T2, human PD-1-Fc (human, UniProt Q15116 25-167, limits assumed, biotinylated in the B7-DC blocking ELISA); assay: blocking, flow cytometry, by paragraph 273: the construct binds hPD-1-Fc and blocks its binding to hB7-H1 expressed by CHO cells (the legend paragraph 64 calls it a binding curve on CHO.hPD-1 cells; the curve falls); parameters: unit not given here
T2 construct: also called hPD-1-Fc; biotinylated PD-1-Fc

[10] = target: T3, human PD-1 (form in the assay not stated) (human, UniProt Q15116 25-167, limits assumed); assay: PD-1-specific binding at 0 to approximately 350 nM antibody (FIG. 20); format not stated
T3 construct: Used for the kinetic constants and EC50 values whose assay format is not described

[11] = target: T3, human PD-1 (form in the assay not …); assay: method not stated
[12] = target: T1, human PD-1, full length, expressed on …; assay: cell-based competition: CHO-hPD1 cells, antibody 30 min, then 10 µg/ml APC-labeled B7-DC-Fc; axis 100 to 0 without a unit (text: 0-0.1 mg/ml)
Description: A cell-based competition assay was performed by incubating 50,000 CHO-hPD1 cells for 30 minutes with anti-PD-1 antibody (present at concentrations ranging from 0-0.1 mg/ml). […] The competition was repeated at a fixed antibody concentration of 20 μg/mL (FIG. 11).

human PD-1-Fc [13] = target: T2, human PD-1-Fc; assay: ELISA: hybridoma supernatant on immobilised rhPD-1/Fc, anti-mouse IgG
Description: Splenocytes from anti-PD-1 positive animals were fused with myeloma cells following standard protocol. The resulting murine hybridomas were screened for those that express high affinity human PD-1-immunoreactive monoclonal antibodies. Antibodies were additionally evaluated to determine whether they were IgG or IgM antibodies. […] Hybridoma supernatants were then placed in contact with the support, and the presence of anti-PD-1 antibody was determined using labeled anti-mouse IgG or anti-mouse IgM.

[14] = target: T4, human B7-H1, full length, expressed on the cell surface (human, UniProt Q9NZQ7 19-290); assay: flow cytometry on CHO cells expressing human B7-H1, median fluorescence intensity
T4 construct: whole, on cells; also called CHO-hB7-H1; CHO-B7-H1 cells
T4 sequence (Q9NZQ7 19-290): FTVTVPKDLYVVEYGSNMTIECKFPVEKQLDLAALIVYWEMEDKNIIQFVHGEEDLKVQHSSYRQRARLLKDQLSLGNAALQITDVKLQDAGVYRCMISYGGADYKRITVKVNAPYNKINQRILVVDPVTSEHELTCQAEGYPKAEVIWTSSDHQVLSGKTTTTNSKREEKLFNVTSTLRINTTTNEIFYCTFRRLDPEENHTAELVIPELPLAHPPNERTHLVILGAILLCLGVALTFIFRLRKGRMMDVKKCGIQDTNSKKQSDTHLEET

T3 sequence (Q15116 25-167 limits assumed): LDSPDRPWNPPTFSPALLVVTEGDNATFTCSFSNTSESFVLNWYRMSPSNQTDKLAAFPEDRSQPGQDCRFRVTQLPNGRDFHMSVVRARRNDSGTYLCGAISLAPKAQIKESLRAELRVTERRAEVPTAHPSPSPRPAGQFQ
Sequence of human PD-1, full length, expressed on the cell surface (human) (Q15116 25-288): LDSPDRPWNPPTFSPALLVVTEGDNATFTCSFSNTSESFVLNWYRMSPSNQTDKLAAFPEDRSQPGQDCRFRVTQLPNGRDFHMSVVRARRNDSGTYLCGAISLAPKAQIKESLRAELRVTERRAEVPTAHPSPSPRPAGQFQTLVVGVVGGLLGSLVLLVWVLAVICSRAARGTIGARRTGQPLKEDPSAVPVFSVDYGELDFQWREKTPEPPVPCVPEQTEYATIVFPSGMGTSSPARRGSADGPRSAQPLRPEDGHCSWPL
T2 sequence (Q15116 25-167 limits assumed): as the sequence (Q15116 25-167 limits assumed) above
T1 sequence (Q15116 25-288): as the sequence (Q15116 25-288) above

Q: How did the number over the gate of positive cells [1] turn out when SYNAGIS (antibody) was run?
A: 1.4

Q: What about the number over the gate of positive cells [2] of the same molecule?
A: 1.5

Q: And the number over the gate of positive cells [3]?
A: 2.1

Q: What about the number over the gate of positive cells [4] of the same molecule?
A: 1.6

Q: What about the number over the gate of positive cells [5] of the same molecule?
A: 1.6

Q: And the number over the gate of positive cells [6]?
A: 1.1

B1: B7-DC-Fc (Fc fusion, part only; not given: Fc part, human, UniProt Q9BQ51 20-220, looked up, part only)
chain, part: LFTVTVPKELYIIEHGSNVTLECNFDTGSHVNLGAITASLQKVENDTSPHRERATLLEEQLPLGKASFHIPQVQVRDEGQYQCIIIYGVAWDYKYLTLKVKASYRKINTHILKVPETDEVELTCQATGYPLAEVSWPNVSVPANTSHSRTPEGLYQVTSVLRLKPPPGRNFSCVFWNTHVRELTLASIDLQSQMEPRTHPT
modifications: APC-labeled or biotinylated in the cell-based assays
Q: With B1 as the molecule, how does the MFI [7] read?
A: 2930

B2: 1H3 Construct (chimeric murine anti-human PD-1 Fab regions of antibody 1H3 and a human IgG1 Fc region) (antibody, V domains shown)
VH: EVQLVESGGGLVKPGGSLKLSCAASGFTFSDYGMHWVRQAPEKGLEWVAYISSGSYTIYYTDTVKGRFTISRDNAKNTLFLQMTSLRSEDTAMYYCARRGYGSFYEYYFDYWGQGTTLTVSS
VL: QIVLTQSPALMSASPGEKVTMTCSASSSVSYMYWYQQKPRSSPKPWIYLTSNLASGVPARFSGSGSGTSYSLTISSMEAEDAATYYCQQWSSNPFTFGSGTKLEIK
notes: also called 1H3 anti-human PD-1 chimeric antibody; chimeric 1H3
Q: Which T cell proliferation [8] does the source give for B2 here?
A: ~7 fold

Q: And the “IC50 (read off the curve)” value (human PD-1-Fc [9])?
A: ~100

Q: And the EC50 [10]?
A: 3 nM

Q: And the Kd [11]?
A: 2.19 nM

Q: What about the koff [11] of the same molecule?
A: 0.000161 s⁻¹

Q: And the kon [11]?
A: 73400 M⁻¹ s⁻¹

B3: Anti-Human PD-1 Clone 1E3 (antibody, IgG1, V domains shown)
VH: EVQLQQSGPVLVKPGASVKMSCKASGYTFTDYYMNWVKQSHGKSLEWIGNINPYNGGTTYNQKFKGKATLTVDKSSRTAYMEINSLTSEDSAVYYCARGRIYDGSLDYWGQGTALTVSS
VL: DIQMTQFPSSLCASQGGKVTVTCKASQDINNYMAWYQHKPGKGPRLLIHYTSTLLSGIPSRFSGSGSGRDYSFSISNLEPEDIATYYCLQYDNLWTFGGGTKLEIK
notes: Murine hybridoma antibody, IgG1/kappa
Q: Does B3 bind [12]?
A: binds

Q: Does B3 bind (human PD-1-Fc [13])?
A: binds

B4: Anti-Human B7-H1 Clone 1E12 (antibody, V domains shown)
VH: EVKLQESGPSLVKPSQTLSLTCSVTGYSITSDYWNWIRKFPGNKLEYVGYISYTGSTYYNPSLKSRISITRDTSKNQYYLQLNSVTSEDTATYYCARYGGWLSPFDYWGQGTTLTVSS
VL: DIVMTQSHKLMSTSVGDRVSITCKASQDVGTAVAWYQQKPGQSPKLLIYWASTRHTGVPDRFTGSGSGTDFTLTISNVQSEDLADYFCQQDSSYPLTFGAGTKVELK
notes: Murine hybridoma IgG
Q: For B4, which MFI [14] is on record?
A: 56200

B5: Anti-Human B7-H1 Clone 1F4 (antibody, V domains shown)
VH: EVQLQESGPGLVAPSQSLSITCTVSGFSLTTYSINWIRQPPGKGLEWLGVMWAGGGTNSNSVLKSRLIISKDNSKSQVFLKMNSLQTDDTARYYCARYYGNSPYYAIDYWGQGTSVTVSS
VL: DIVTTQSHKLMSTSVGDRVSITCKASQDVGTAVAWYQQKPGQSPKLLIYWASTRHTGVPDRFTGSGSGTDFTLTISNVQSEDLADYFCQQDSSYPLTFGAGTKVELK
notes: Murine hybridoma IgG
Q: B5 was tested. Which MFI [14] did it give?
A: 62000

B6: Anti-Human B7-H1 Clone 3B6 (antibody, V domains shown)
VL: DIVMTQSPAIMSASPGEKVTMTCSASSSIRYMHWYQQKPGTSPKRWISDTSKLTSGVPARFSGSGSGTSYALTISSMEAEDAATYYCHQRSSYPWTFGGGTKLEIK
V domain: EVKLQESGPSLVKPGASVKLSCKASGYTFTSYDINWVKQRPGQGLEWIGWIFPRDNNTKYNENFKGKATLTVDTSSTTAYMELHSLTSEDSAVYFCTKENWVGDFDYWGQGTTLTLSS
notes: Murine hybridoma IgG
Q: How did the MFI [14] turn out when B6 was run?
A: 59600

B7: Anti-Human B7-H1 Clone 3D10 (antibody, V domains shown)
VH: EVQLQQSGPDLVTPGASVRISCQASGYTFPDYYMNWVKQSHGKSLEWIGDIDPNYGGTTYNQKFKGKAILTVDRSSSTAYMELRSLTSEDSAVYYCARGALTDWGQGTSLTVSS
VL: QIVLSQSPAILSASPGEKVTMTCRASSSVSYIYWFQQKPGSSPKPWIYATFNLASGVPARFSGSGSGTSYSLTISRVETEDAATYYCQQWSNNPLTFGAGTKLELK
notes: Murine hybridoma IgG
Q: B7 was tested. Which MFI [14] did it give?
A: 53100

B8: h1H3 Var 2 (antibody, V domains shown)
VH: EVQLVESGGGLVQPGGSLRLSCAASGFTFSDYGMHWVRQAPGKGLEWVAYISSGSYTIYYADSVKGRFTISRDNAKNTLYLQMSSLRAEDTAVYYCARRGYGSFYEYYFDYWGQGTTVTVSS
VL: EIVLTQSPATLSLSPGERATLSCRASSSVSYMYWYQQKPGQAPRLLIYLASNRATGIPARFSGSGSGTDYTLTISSLEPEDFAVYYCQQWSSNPFTFGQGTKLEIK
notes: Humanized variable domains LC1_1 / HC1_2
Q: Which EC50 [10] does the source give for B8 here?
A: 3 nM

B9: h1H3 Var 1 (antibody, V domains shown)
VH: EVQLVESGGGLVQPGGSLRLSCAASGFTFSDYGMHWVRQAPGKGLEWVSYISSGSSTIYYADSVKGRFTISRDNAKNTLYLQMSSLRAEDTAVYYCARRGYGSFYEYYFDYWGQGTTVTVSS
VL: EIVLTQSPATLSLSPGERATLSCRASSSVSYMYWYQQKPGQAPRLLIYLASNRATGIPARFSGSGSGTDYTLTISSLEPEDFAVYYCQQWSSNPFTFGQGTKLEIK
notes: Humanized variable domains LC1_1 / HC1_1
Q: For B9, which EC50 [10] is on record?
A: 6 nM

B10: h1H3 Var 3 (antibody, V domains shown)
VH: EVQLVESGGGLVQPGGSLRLSCAASGFTFSDYGMHWVRQAPGKGLEWVAYISSGSYTIYSADSVKGRFTISRDNAKNTLYLQMSSLRAEDTAVYYCARRGYGSFYEYYFDYWGQGTTVTVSS
VL: EIVLTQSPATLSLSPGERATLSCRASSSVSYMYWYQQKPGQAPRLLIYLASNRATGIPARFSGSGSGTDYTLTISSLEPEDFAVYYCQQWSSNPFTFGQGTKLEIK
notes: Humanized variable domains LC1_1 / HC1_3
Q: How did the EC50 [10] turn out when B10 was run?
A: 3 nM

B11: h1H3 Var 4 (antibody, V domains shown)
VH: EVQLVESGGGLVQPGGSLRLSCAASGFTFSDYGMHWVRQAPGKGLEWVSYISSGSSTIYYADSVKGRFTISRDNAKNTLYLQMSSLRAEDTAVYYCARRGYGSFYEYYFDYWGQGTTVTVSS
VL: QIVLTQSPATLSLSPGERATLSCSASSSVSYMYWYQQKPGQAPRLLIYLTSNRATGIPARFSGSGSGTDYTLTISSLEPEDFAVYYCQQWSSNPFTFGQGTKLEIK
notes: Humanized variable domains LC1_2 / HC1_1
Q: Which EC50 [10] does the source give for B11 here?
A: 6 nM

B12: h1H3 Var 5 (antibody, V domains shown)
VH: EVQLVESGGGLVQPGGSLRLSCAASGFTFSDYGMHWVRQAPGKGLEWVAYISSGSYTIYYADSVKGRFTISRDNAKNTLYLQMSSLRAEDTAVYYCARRGYGSFYEYYFDYWGQGTTVTVSS
VL: QIVLTQSPATLSLSPGERATLSCSASSSVSYMYWYQQKPGQAPRLLIYLTSNRATGIPARFSGSGSGTDYTLTISSLEPEDFAVYYCQQWSSNPFTFGQGTKLEIK
notes: Humanized variable domains LC1_2 / HC1_2
Q: For B12, which EC50 [10] is on record?
A: 3 nM

B13: h1H3 Var 6 (antibody, V domains shown)
VH: EVQLVESGGGLVQPGGSLRLSCAASGFTFSDYGMHWVRQAPGKGLEWVAYISSGSYTIYSADSVKGRFTISRDNAKNTLYLQMSSLRAEDTAVYYCARRGYGSFYEYYFDYWGQGTTVTVSS
VL: QIVLTQSPATLSLSPGERATLSCSASSSVSYMYWYQQKPGQAPRLLIYLTSNRATGIPARFSGSGSGTDYTLTISSLEPEDFAVYYCQQWSSNPFTFGQGTKLEIK
notes: Humanized variable domains LC1_2 / HC1_3
Q: How did the EC50 [10] turn out when B13 was run?
A: 3 nM
